Results as given in publication PMC9333307.

Molecular target: Urtica dioica agglutinin (Urtica dioica (stinging nettle))
Assay: ELISA; microwells coated with serial dilutions (1:2 to 1:16) of UDA in PBS at 4°C overnight; blocked with 0.3% skim milk; 0.5 μg.mL recombinant RBD added for 1 h at RT; detected with rabbit anti-his antibodies and HRP-conjugated secondary antibody, TMB, absorbance at 450 nm; wells without UDA as negative control
Set-up: unit not given here

Substance: recombinant receptor-binding domain (RBD) of SARS-CoV-2 Spike protein (from UniProt P0DTC2 319-541) (domain or fragment)
- absorbance at 450 nm: 420
